Laboratory results published in patent US20150344570A1 (published 2015).

T1: FcγRIIa R (human, UniProt P12318 34-217)
T1 construct: extracellular domain; also called FcgRIIa R type; 2aR
T1 sequence (looked up): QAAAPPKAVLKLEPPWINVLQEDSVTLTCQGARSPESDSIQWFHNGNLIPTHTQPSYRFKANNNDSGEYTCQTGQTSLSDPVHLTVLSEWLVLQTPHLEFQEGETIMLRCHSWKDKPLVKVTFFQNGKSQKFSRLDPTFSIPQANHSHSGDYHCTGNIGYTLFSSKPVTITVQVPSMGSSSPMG

T2: FcγRIIb extracellular domain with C-terminal His tag (human, UniProt P31994 43-217)
T2 construct: extracellular domain; also called FcgRIIb; 2b
T2 sequence (looked up): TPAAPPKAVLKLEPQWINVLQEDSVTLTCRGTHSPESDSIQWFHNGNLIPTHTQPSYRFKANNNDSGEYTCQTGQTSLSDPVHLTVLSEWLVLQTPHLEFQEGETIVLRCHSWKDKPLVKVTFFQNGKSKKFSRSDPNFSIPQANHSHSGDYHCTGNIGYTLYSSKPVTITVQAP

B1: GpH7-A5/GpH7-B3 variant P238_06M/GpL16-k0 (antibody, human IgG1, kappa)
heavy 1: not shown
heavy 2: not shown
light: DIVMTQSPLSLPVTPGEPASISCQASESLVHSNRNTYLHWYLQKPGQSPQLLIYKVSNRFSGVPDRFSGSGSGTDFTLKISRVEAEDVGVYYCSQNTHVPPTFGQGTKVEIERTVAAPSVFIFPPSDEQLKSGTASVVCLLNNFYPREAKVQWKVDNALQSGNSQESVTEQDSKDSTYSLSSTLTLSKADYEKHKVYACEVTHQGLSSPVTKSFNRGEC
notes: also called He Ab P238_06M
B2: GpH7-A5/GpH7-B3 variant N325_14T/GpL16-k0 (antibody, human IgG1, kappa)
heavy 1: not shown
heavy 2: not shown
light: B1 light
notes: also called He Ab N325_14T
B3: GpH7-A5/GpH7-B3 variant P238_09D/GpL16-k0 (antibody, human IgG1, kappa)
heavy 1: not shown
heavy 2: not shown
light: B1 light
notes: also called He Ab P238_09D
B4: GpH7-A5/GpH7-B3 variant N325_10E/GpL16-k0 (antibody, human IgG1, kappa)
heavy 1: not shown
heavy 2: not shown
light: B1 light
notes: also called He Ab N325_10E
B5: GpH7-A5/GpH7-B3 variant P331_03V/GpL16-k0 (antibody, human IgG1, kappa)
heavy 1: not shown
heavy 2: not shown
light: B1 light
notes: also called He Ab P331_03V
B6: GpH7-A5/GpH7-B3 variant N325_20W/GpL16-k0 (antibody, human IgG1, kappa)
heavy 1: not shown
heavy 2: not shown
light: B1 light
notes: also called He Ab N325_20W
B7: GpH7-A5/GpH7-B3 variant P238_20W/GpL16-k0 (antibody, human IgG1, kappa)
heavy 1: not shown
heavy 2: not shown
light: B1 light
notes: also called He Ab P238_20W
B8: GpH7-A5/GpH7-B3 variant P238_16H/GpL16-k0 (antibody, human IgG1, kappa)
heavy 1: not shown
heavy 2: not shown
light: B1 light
notes: also called He Ab P238_16H
B9: GpH7-A5/GpH7-B3 variant P238_04F/GpL16-k0 (antibody, human IgG1, kappa)
heavy 1: not shown
heavy 2: not shown
light: B1 light
notes: also called He Ab P238_04F
B10: GpH7-A5/GpH7-B3 variant P271_09D/GpL16-k0 (antibody, human IgG1, kappa)
heavy 1: not shown
heavy 2: not shown
light: B1 light
notes: also called He Ab P271_09D
B11: GpH7-A5/GpH7-B3 variant N325_09D/GpL16-k0 (antibody, human IgG1, kappa)
heavy 1: not shown
heavy 2: not shown
light: B1 light
notes: also called He Ab N325_09D
B12: GpH7-A5/GpH7-B3 variant P238_15Y/GpL16-k0 (antibody, human IgG1, kappa)
heavy 1: not shown
heavy 2: not shown
light: B1 light
notes: also called He Ab P238_15Y
B13: GpH7-A5/GpH7-B3 variant P238_03V/GpL16-k0 (antibody, human IgG1, kappa)
heavy 1: not shown
heavy 2: not shown
light: B1 light
notes: also called He Ab P238_03V
B14: GpH7-A5/GpH7-B3 variant P238_19Q/GpL16-k0 (antibody, human IgG1, kappa)
heavy 1: not shown
heavy 2: not shown
light: B1 light
notes: also called He Ab P238_19Q
B15: GpH7-A5/GpH7-B3 variant N325_15Y/GpL16-k0 (antibody, human IgG1, kappa)
heavy 1: not shown
heavy 2: not shown
light: B1 light
notes: also called He Ab N325_15Y
B16: GpH7-A5/GpH7-B3 variant P271_10E/GpL16-k0 (antibody, human IgG1, kappa)
heavy 1: not shown
heavy 2: not shown
light: B1 light
notes: also called He Ab P271_10E
B17: GpH7-A5/GpH7-B3 variant P271_08L/GpL16-k0 (antibody, human IgG1, kappa)
heavy 1: not shown
heavy 2: not shown
light: B1 light
notes: also called He Ab P271_08L
B18: GpH7-A5/GpH7-B3 variant P331_02A/GpL16-k0 (antibody, human IgG1, kappa)
heavy 1: not shown
heavy 2: not shown
light: B1 light
notes: also called He Ab P331_02A
B19: GpH7-A5/GpH7-B3 variant P331_04F/GpL16-k0 (antibody, human IgG1, kappa)
heavy 1: not shown
heavy 2: not shown
light: B1 light
notes: also called He Ab P331_04F
B20: GpH7-A5/GpH7-B3 variant N325_13S/GpL16-k0 (antibody, human IgG1, kappa)
heavy 1: not shown
heavy 2: not shown
light: B1 light
notes: also called He Ab N325_13S
B21: GpH7-A5/GpH7-B3 variant P238_10E/GpL16-k0 (antibody, human IgG1, kappa)
heavy 1: not shown
heavy 2: not shown
light: B1 light
notes: also called He Ab P238_10E
B22: GpH7-B3 variant G237_02A/GpL16-k0 (antibody, human IgG1, kappa)
heavy: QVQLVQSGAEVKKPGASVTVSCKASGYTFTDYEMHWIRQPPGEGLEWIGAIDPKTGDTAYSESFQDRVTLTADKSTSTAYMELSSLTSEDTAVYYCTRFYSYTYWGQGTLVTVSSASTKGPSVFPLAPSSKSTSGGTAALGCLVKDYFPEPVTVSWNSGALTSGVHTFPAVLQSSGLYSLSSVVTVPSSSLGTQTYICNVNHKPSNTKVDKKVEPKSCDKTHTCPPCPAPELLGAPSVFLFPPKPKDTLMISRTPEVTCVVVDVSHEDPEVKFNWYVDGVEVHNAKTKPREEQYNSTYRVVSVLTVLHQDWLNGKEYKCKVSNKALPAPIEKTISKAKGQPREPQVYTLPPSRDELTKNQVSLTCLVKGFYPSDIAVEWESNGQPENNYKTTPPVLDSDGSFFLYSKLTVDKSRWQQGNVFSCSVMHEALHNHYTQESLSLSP
light: B1 light
notes: also called Ho Ab G237_02A
B23: GpH7-B3 variant A327_07I/GpL16-k0 (antibody, human IgG1, kappa)
heavy: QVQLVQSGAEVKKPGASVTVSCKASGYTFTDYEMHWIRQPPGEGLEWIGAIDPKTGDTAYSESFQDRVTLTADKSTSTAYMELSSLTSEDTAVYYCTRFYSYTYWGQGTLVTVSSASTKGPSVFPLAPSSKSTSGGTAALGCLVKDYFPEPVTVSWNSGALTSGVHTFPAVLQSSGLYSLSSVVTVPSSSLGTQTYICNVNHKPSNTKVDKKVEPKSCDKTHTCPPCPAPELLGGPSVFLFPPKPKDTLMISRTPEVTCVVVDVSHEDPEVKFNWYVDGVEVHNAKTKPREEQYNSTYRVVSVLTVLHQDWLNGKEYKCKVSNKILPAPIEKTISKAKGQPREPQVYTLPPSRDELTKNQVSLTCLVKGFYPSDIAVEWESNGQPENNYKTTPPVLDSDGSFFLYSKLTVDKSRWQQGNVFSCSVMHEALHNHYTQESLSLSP
light: B1 light
notes: also called Ho Ab A327_07I
B24: GpH7-B3 variant G237_15Y/GpL16-k0 (antibody, human IgG1, kappa)
heavy: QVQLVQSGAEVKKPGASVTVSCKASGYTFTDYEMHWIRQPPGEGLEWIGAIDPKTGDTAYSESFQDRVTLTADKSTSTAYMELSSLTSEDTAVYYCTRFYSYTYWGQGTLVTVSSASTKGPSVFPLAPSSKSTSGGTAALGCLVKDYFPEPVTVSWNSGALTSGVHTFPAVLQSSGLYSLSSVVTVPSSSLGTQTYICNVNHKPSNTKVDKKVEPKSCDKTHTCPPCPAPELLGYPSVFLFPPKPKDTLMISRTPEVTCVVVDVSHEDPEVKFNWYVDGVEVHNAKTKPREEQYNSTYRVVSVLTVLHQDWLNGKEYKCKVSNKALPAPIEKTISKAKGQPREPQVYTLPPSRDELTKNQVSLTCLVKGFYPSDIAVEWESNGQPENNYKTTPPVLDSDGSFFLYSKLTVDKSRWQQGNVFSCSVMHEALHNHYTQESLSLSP
light: B1 light
notes: also called Ho Ab G237_15Y
B25: GpH7-B3 variant H268_03V/GpL16-k0 (antibody, human IgG1, kappa)
heavy: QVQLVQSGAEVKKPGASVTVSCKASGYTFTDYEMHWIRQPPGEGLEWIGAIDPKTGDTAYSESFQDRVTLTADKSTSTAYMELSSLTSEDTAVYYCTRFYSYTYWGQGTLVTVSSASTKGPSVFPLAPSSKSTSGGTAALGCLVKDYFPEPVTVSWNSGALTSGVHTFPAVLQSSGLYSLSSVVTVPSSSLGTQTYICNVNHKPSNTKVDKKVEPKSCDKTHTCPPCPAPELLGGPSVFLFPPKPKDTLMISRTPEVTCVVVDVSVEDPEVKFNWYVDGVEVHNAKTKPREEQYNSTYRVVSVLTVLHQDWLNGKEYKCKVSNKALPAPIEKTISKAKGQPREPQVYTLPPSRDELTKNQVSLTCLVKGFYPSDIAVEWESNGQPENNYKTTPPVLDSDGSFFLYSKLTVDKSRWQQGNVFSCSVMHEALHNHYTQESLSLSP
light: B1 light
notes: also called Ho Ab H268_03V
B26: GpH7-B3 variant I332_02A/GpL16-k0 (antibody, human IgG1, kappa)
heavy: not shown
light: B1 light
notes: also called Ho Ab I332_02A
B27: GpH7-B3 variant I336_06M/GpL16-k0 (antibody, human IgG1, kappa)
heavy: not shown
light: B1 light
notes: also called Ho Ab I336_06M
B28: GpH7-B3 variant G237_20W/GpL16-k0 (antibody, human IgG1, kappa)
heavy: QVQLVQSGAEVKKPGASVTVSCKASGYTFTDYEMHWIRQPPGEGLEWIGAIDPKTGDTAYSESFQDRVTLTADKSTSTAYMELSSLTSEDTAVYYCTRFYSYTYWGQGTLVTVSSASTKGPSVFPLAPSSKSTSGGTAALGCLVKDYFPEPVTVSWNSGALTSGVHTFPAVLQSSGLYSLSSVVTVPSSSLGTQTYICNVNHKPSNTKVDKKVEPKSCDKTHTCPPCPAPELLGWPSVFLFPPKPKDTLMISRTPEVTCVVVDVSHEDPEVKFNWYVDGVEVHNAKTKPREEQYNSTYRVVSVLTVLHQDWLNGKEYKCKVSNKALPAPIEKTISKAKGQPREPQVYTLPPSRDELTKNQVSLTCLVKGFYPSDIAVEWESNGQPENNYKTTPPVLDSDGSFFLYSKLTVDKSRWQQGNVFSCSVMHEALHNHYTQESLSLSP
light: B1 light
notes: also called Ho Ab G237_20W
B29: GpH7-B3 variant A330_01G/GpL16-k0 (antibody, human IgG1, kappa)
heavy: not shown
light: B1 light
notes: also called Ho Ab A330_01G
B30: GpH7-B3 variant K326_07I/GpL16-k0 (antibody, human IgG1, kappa)
heavy: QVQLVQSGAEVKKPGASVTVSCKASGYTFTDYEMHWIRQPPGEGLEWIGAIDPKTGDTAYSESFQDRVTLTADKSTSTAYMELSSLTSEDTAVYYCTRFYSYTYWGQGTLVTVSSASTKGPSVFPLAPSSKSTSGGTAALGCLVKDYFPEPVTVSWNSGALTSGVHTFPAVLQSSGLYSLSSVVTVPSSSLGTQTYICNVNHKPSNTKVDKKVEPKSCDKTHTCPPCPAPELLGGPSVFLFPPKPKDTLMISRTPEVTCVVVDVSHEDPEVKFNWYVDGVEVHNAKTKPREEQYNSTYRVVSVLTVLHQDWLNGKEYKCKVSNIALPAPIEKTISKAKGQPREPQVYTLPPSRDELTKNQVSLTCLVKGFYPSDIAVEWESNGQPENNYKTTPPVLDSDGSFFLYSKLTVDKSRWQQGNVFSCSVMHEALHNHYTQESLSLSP
light: B1 light
notes: also called Ho Ab K326_07I
B31: GpH7-B3 variant H268_15Y/GpL16-k0 (antibody, human IgG1, kappa)
heavy: not shown
light: B1 light
notes: also called Ho Ab H268_15Y
B32: GpH7-B3 variant A327_18N/GpL16-k0 (antibody, human IgG1, kappa)
heavy: not shown
light: B1 light
notes: also called Ho Ab A327_18N
B33: GpH7-B3 variant G237_09D/GpL16-k0 (antibody, human IgG1, kappa)
heavy: not shown
light: B1 light
notes: also called Ho Ab G237_09D
B34: GpH7-B3 variant I336_08L/GpL16-k0 (antibody, human IgG1, kappa)
heavy: not shown
light: B1 light
notes: also called Ho Ab I336_08L
B35: GpH7-B3 variant G237_08L/GpL16-k0 (antibody, human IgG1, kappa)
heavy: not shown
light: B1 light
notes: also called Ho Ab G237_08L
B36: GpH7-B3 variant G237_04F/GpL16-k0 (antibody, human IgG1, kappa)
heavy: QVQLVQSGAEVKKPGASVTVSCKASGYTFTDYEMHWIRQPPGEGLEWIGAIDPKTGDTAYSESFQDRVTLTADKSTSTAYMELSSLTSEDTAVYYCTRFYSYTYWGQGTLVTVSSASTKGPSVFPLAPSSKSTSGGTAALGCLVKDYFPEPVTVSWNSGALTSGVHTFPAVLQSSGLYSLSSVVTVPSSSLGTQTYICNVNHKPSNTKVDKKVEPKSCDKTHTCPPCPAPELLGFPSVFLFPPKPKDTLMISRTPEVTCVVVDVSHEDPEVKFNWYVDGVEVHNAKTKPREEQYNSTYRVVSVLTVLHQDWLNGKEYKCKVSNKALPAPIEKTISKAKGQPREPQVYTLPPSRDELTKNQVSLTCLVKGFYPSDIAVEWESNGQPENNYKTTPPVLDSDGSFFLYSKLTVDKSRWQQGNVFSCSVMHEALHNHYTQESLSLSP
light: B1 light
notes: also called Ho Ab G237_04F
B37: GpH7-B3 variant A330_05P/GpL16-k0 (antibody, human IgG1, kappa)
heavy: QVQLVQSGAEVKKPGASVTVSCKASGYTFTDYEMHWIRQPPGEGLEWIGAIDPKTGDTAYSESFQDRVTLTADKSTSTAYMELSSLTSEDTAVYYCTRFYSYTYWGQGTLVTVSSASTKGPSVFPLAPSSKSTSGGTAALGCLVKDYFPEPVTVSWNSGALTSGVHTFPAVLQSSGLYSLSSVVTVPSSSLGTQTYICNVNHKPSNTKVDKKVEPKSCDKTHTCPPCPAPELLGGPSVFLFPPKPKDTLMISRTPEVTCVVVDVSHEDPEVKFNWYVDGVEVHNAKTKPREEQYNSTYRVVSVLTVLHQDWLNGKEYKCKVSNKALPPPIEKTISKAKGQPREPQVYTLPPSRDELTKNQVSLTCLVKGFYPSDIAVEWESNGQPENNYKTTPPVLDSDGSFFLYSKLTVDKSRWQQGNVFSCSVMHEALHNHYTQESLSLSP
light: B1 light
notes: also called Ho Ab A330_05P
B38: GpH7-B3 variant I332_14T/GpL16-k0 (antibody, human IgG1, kappa)
heavy: not shown
light: B1 light
notes: also called Ho Ab I332_14T
B39: GpH7-B3 variant G237_18N/GpL16-k0 (antibody, human IgG1, kappa)
heavy: not shown
light: B1 light
notes: also called Ho Ab G237_18N
B40: GpH7-B3 variant G237_06M/GpL16-k0 (antibody, human IgG1, kappa)
heavy: not shown
light: B1 light
notes: also called Ho Ab G237_06M
B41: GpH7-B3 variant H268_05P/GpL16-k0 (antibody, human IgG1, kappa)
heavy: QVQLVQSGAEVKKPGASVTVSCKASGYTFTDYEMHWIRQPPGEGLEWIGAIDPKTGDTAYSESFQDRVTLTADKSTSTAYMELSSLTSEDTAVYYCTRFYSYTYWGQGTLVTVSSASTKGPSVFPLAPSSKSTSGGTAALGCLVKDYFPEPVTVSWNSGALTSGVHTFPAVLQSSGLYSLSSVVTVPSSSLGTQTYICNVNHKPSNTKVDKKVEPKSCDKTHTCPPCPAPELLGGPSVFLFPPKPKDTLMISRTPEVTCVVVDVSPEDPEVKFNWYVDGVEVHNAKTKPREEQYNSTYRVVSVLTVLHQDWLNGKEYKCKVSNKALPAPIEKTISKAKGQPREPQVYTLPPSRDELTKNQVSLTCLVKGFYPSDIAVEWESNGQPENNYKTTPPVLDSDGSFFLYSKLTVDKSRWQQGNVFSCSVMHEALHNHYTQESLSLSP
light: B1 light
notes: also called Ho Ab H268_05P
B42: GpH7-B3 variant G237_19Q/GpL16-k0 (antibody, human IgG1, kappa)
heavy: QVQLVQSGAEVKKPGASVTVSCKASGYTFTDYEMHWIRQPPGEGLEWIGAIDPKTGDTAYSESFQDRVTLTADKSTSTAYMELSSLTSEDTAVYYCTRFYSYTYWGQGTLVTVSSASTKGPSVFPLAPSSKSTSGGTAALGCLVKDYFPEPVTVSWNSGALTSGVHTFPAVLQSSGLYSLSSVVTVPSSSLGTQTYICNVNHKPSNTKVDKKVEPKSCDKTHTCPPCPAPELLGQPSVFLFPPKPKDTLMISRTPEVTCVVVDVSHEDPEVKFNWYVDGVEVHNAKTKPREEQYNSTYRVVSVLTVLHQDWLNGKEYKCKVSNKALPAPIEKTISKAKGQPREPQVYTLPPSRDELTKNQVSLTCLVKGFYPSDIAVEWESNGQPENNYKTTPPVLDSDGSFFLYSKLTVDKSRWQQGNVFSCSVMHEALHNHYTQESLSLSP
light: B1 light
notes: also called Ho Ab G237_19Q
B43: GpH7-B3 variant G237_13S/GpL16-k0 (antibody, human IgG1, kappa)
heavy: not shown
light: B1 light
notes: also called Ho Ab G237_13S
B44: GpH7-B3 variant G237_10E/GpL16-k0 (antibody, human IgG1, kappa)
heavy: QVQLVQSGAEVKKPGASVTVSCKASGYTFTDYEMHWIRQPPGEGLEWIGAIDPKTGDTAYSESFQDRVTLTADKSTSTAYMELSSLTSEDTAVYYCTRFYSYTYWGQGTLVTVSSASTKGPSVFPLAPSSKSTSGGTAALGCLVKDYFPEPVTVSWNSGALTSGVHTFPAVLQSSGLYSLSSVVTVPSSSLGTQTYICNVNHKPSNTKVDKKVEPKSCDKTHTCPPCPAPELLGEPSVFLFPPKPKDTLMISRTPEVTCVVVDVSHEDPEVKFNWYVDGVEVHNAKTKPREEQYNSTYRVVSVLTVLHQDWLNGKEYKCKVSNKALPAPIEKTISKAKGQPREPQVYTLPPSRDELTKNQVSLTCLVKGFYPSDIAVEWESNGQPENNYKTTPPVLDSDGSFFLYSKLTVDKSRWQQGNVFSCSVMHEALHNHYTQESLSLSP
light: B1 light
notes: also called Ho Ab G237_10E

The binders below were run against T1, FcγRIIa R (assay: SPR (Biacore), captured antibody, FcγR as analyte; relative binding activity).

Row | He/Con_2aR | Binder
1 | 139 % (GpH7-A5/GpH7-B3/GpL16-k0 = 100) | B1
2 | 105 % (GpH7-A5/GpH7-B3/GpL16-k0 = 100) | B2
3 | 148 % (GpH7-A5/GpH7-B3/GpL16-k0 = 100) | B3
4 | 105 % (GpH7-A5/GpH7-B3/GpL16-k0 = 100) | B4
5 | 114 % (GpH7-A5/GpH7-B3/GpL16-k0 = 100) | B5
6 | 134 % (GpH7-A5/GpH7-B3/GpL16-k0 = 100) | B6
7 | 117 % (GpH7-A5/GpH7-B3/GpL16-k0 = 100) | B7
8 | 122 % (GpH7-A5/GpH7-B3/GpL16-k0 = 100) | B8
9 | 174 % (GpH7-A5/GpH7-B3/GpL16-k0 = 100) | B9
10 | 110 % (GpH7-A5/GpH7-B3/GpL16-k0 = 100) | B10
11 | 116 % (GpH7-A5/GpH7-B3/GpL16-k0 = 100) | B11
12 | 156 % (GpH7-A5/GpH7-B3/GpL16-k0 = 100) | B12
13 | 120 % (GpH7-A5/GpH7-B3/GpL16-k0 = 100) | B13
14 | 104 % (GpH7-A5/GpH7-B3/GpL16-k0 = 100) | B14
15 | 101 % (GpH7-A5/GpH7-B3/GpL16-k0 = 100) | B15
16 | 103 % (GpH7-A5/GpH7-B3/GpL16-k0 = 100) | B16
17 | 104 % (GpH7-A5/GpH7-B3/GpL16-k0 = 100) | B17
18 | 106 % (GpH7-A5/GpH7-B3/GpL16-k0 = 100) | B18
19 | 111 % (GpH7-A5/GpH7-B3/GpL16-k0 = 100) | B19
20 | 143 % (GpH7-A5/GpH7-B3/GpL16-k0 = 100) | B20
21 | 151 % (GpH7-A5/GpH7-B3/GpL16-k0 = 100) | B21

What follows are binders tested against T2, FcγRIIb extracellular domain with … (assay: SPR (Biacore), relative binding).
Experimental: Analysis of interaction between objective antibody and the FcγR was carried out using Biacore T100 (GE Healthcare). HBS-EP+ (GE Healthcare) was used as the running buffer, and the measurement temperature was set to 25° C. Chips produced by immobilizing the antigen peptide by the amine coupling method to a Series S Sencor Chip CM5 (GE Healthcare), or alternatively, chips produced by allowing preliminarily biotinylated antigen peptides to interact with and immobilize onto a Series S Sensor Chip SA (certified) (GE Healthcare) were used. Antibodies of interest were captured onto an antigen peptide-immobilized chip, and allowed to interact to each FcγR diluted with running buffer. To regenerate and repeatedly use the chip, the antibodies captured on the chip were washed off by reacting 10 mM glycine-HCl, pH 1.5.

Row | Ho/Con_2b | Binder
22 | 47.8 % of HoCon Ab GpH7-B3/GpL16-k0 | B22
23 | 37.6 % of HoCon Ab GpH7-B3/GpL16-k0 | B23
24 | 83.1 % of HoCon Ab GpH7-B3/GpL16-k0 | B24
25 | 109 % of HoCon Ab GpH7-B3/GpL16-k0 | B25
26 | 81.8 % of HoCon Ab GpH7-B3/GpL16-k0 | B26
27 | 90.1 % of HoCon Ab GpH7-B3/GpL16-k0 | B27
28 | 166 % of HoCon Ab GpH7-B3/GpL16-k0 | B28
29 | 102 % of HoCon Ab GpH7-B3/GpL16-k0 | B29
30 | 170 % of HoCon Ab GpH7-B3/GpL16-k0 | B30
31 | 104 % of HoCon Ab GpH7-B3/GpL16-k0 | B31
32 | 101 % of HoCon Ab GpH7-B3/GpL16-k0 | B32
33 | 92.9 % of HoCon Ab GpH7-B3/GpL16-k0 | B33
34 | 103 % of HoCon Ab GpH7-B3/GpL16-k0 | B34
35 | 49.4 % of HoCon Ab GpH7-B3/GpL16-k0 | B35
36 | 140 % of HoCon Ab GpH7-B3/GpL16-k0 | B36
37 | 35.3 % of HoCon Ab GpH7-B3/GpL16-k0 | B37
38 | 106 % of HoCon Ab GpH7-B3/GpL16-k0 | B38
39 | 63.9 % of HoCon Ab GpH7-B3/GpL16-k0 | B39
40 | 35.3 % of HoCon Ab GpH7-B3/GpL16-k0 | B40
41 | 109 % of HoCon Ab GpH7-B3/GpL16-k0 | B41
42 | 5.3 % of HoCon Ab GpH7-B3/GpL16-k0 | B42
43 | 25.7 % of HoCon Ab GpH7-B3/GpL16-k0 | B43
44 | 17.8 % of HoCon Ab GpH7-B3/GpL16-k0 | B44
